The text below walks through data of patent US20250101127A1 (CYRON THERAPEUTICS, published 2025).

Where a chain is given by its changes, count along the chain named.

The labels stand for the following.
B1: MP1 monoclonal antibody (antibody, V domains shown)
VH: EVKVDETGGGLVQPGRPMKLSCVVSGITFSDYWMNWVRQSPEKGLEWVAQIRNKPYNYETYYSNSVKGRFTISRDDSKSSVYLQMNNLRAEDMGIYYCTWAMITSDGYAMDYWGQGTSVTVSS
VL: DIVMSQSPSSLAVSVGEKVTLICKSSQSLLLSSNQKNYLAWYQQKPGQSPKLLIYWASTRESGVPDRFTGSGSGTDFTLTINSVKAEDLAVYYCQQCFSYPLTFGAGTKLELK
notes: also called mouse antibody MP1; MP1 Ab
B2: humanized MP1 antibody VH1/VL4 (antibody, V domains shown)
VH: EVKVVESGGGLVQPGRSLRLSCTASGITFSDYWMNWVRQAPGKGLEWVGQIRNKPYNYETYYSQSVKGRFTISRDDSKSIAYLQMSSLKTEDTAVYYCTWAMITSDGYAMDYWGQGTLVTVSS
VL: EIVMTQSPGTLSLSPGERATLSCRSSQSLLLSSNQKNYLAWYQQKPGQAPRLLIYWASTRESGIPDRFSGSGSGTDFTLTISRVEPEDFAVYYCQQCFSYPLTFGQGTKLEIK
notes: tested as ExpiCHO-S culture solution
B3: humanized MP1 antibody VH4/VL8 (antibody, V domains shown)
VH: B2 VH with R16G, T23A, G49A, Q64N, S77A, I80S, A81V, K89R, T90A
VL: DIVMTQSPLSLPVTPGEPASISCRSSQSLLLSSNQKNYLAWYLQKPGQSPQLLIYWGSTRESGVPDRFSGSGSGTDFTLKISRVEAEDVGVYYCQQSFSYPLTFGQGTKLEIK
notes: as for B2
B4: humanized MP1 antibody VH4/VL7 (antibody, V domains shown)
VH: B2 VH with R16G, T23A, G49A, Q64N, S77A, I80S, A81V, K89R, T90A
VL: B3 VL with G57A, S97C
notes: as for B2
B5: humanized MP1 antibody VH8/VL2 (antibody, V domains shown)
VH: QVQLVESGGGVVQPGRSLRLSCAASGITFSSYWMNWVRQAPGKGLEWVAQIRNKPYNYEKYYAQSVKGRFTISRDDSKSTLYLQMSSLRAEDTAVYYCAWAMITSDGYAMDYWGQGTLVTVSS
VL: DIVMTQSPDSLAVSLGERATISCKSSQSVLLSSNQKNYLAWYQQKPGQPPKLLIYWASTRESGVPDRFSGSGSGTEFTLTISSLQAEDVAVYYCQQSFSYPLTFGQGTKLEIK
notes: as for B2
B6: humanized MP1 antibody VH7/VL5 (antibody, V domains shown)
VH: B5 VH with Q3K, L4V, S31D, K60T, A63S, Q64N, L81V, A99T
VL: B2 VL with M4L, S25A, L29V, T59S, S62T, V84L, C97S
notes: as for B2
B7: humanized MP1 antibody VH4/VL2 (antibody, V domains shown)
VH: B2 VH with R16G, T23A, G49A, Q64N, S77A, I80S, A81V, K89R, T90A
VL: B5 VL
notes: as for B2
B8: humanized MP1 antibody VH8/VL4 (antibody, V domains shown)
VH: B5 VH
VL: B2 VL
notes: as for B2
B9: humanized MP1 antibody VH1/VL1 (antibody, V domains shown)
VH: B2 VH
VL: B5 VL with V29L, L84V, S97C
notes: as for B2
B10: humanized MP1 antibody VH8/VL8 (antibody, V domains shown)
VH: B5 VH
VL: B3 VL
notes: as for B2
B11: humanized MP1 antibody VH1/VL2 (antibody, V domains shown)
VH: B2 VH
VL: B5 VL
notes: as for B2
B12: humanized MP1 antibody VH8/VL3 (antibody, V domains shown)
VH: B5 VH
VL: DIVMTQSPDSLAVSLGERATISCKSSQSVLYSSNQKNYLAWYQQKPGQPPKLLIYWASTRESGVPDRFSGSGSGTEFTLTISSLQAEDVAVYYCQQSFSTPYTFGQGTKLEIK
notes: as for B2
B13: humanized MP1 antibody VH9/VL2 (antibody, V domains shown)
VH: B5 VH with I27F, N35H, Q50V, N53Y, N57G, Y58S, M110F
VL: B5 VL
notes: as for B2
B14: humanized MP1 antibody VH1/VL5 (antibody, V domains shown)
VH: B2 VH
VL: B2 VL with M4L, S25A, L29V, T59S, S62T, V84L, C97S
notes: as for B2
B15: humanized MP1 antibody VH8/VL1 (antibody, V domains shown)
VH: B5 VH
VL: B5 VL with V29L, L84V, S97C
notes: as for B2
B16: humanized MP1 antibody VH8/VL5 (antibody, V domains shown)
VH: B5 VH
VL: B2 VL with M4L, S25A, L29V, T59S, S62T, V84L, C97S
notes: as for B2
B17: humanized MP1 antibody VH4/VL5 (antibody, V domains shown)
VH: B2 VH with R16G, T23A, G49A, Q64N, S77A, I80S, A81V, K89R, T90A
VL: B2 VL with M4L, S25A, L29V, T59S, S62T, V84L, C97S
notes: as for B2
B18: humanized MP1 antibody VH7/VL3 (antibody, V domains shown)
VH: B5 VH with Q3K, L4V, S31D, K60T, A63S, Q64N, L81V, A99T
VL: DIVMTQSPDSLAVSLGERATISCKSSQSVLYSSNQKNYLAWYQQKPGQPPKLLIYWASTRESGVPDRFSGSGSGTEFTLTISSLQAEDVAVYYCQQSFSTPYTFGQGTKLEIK
notes: as for B2
B19: humanized MP1 antibody VH4/VL4 (antibody, V domains shown)
VH: B2 VH with R16G, T23A, G49A, Q64N, S77A, I80S, A81V, K89R, T90A
VL: B2 VL
notes: as for B2
B20: humanized MP1 antibody VH7/VL4 (antibody, V domains shown)
VH: B5 VH with Q3K, L4V, S31D, K60T, A63S, Q64N, L81V, A99T
VL: B2 VL
notes: as for B2
B21: humanized MP1 antibody VH8/VL6 (antibody, V domains shown)
VH: B5 VH
VL: EIVLTQSPGTLSLSPGERATLSCRASQSVLLSSSQKNYLAWYQQKPGQAPRLLIYWASSRATGIPDRFSGSGSGTDFTLTISRLEPEDFAVYYCQQSFSSPYTFGQGTKLEIK
notes: as for B2

T1 sequence (P15941 24-1255): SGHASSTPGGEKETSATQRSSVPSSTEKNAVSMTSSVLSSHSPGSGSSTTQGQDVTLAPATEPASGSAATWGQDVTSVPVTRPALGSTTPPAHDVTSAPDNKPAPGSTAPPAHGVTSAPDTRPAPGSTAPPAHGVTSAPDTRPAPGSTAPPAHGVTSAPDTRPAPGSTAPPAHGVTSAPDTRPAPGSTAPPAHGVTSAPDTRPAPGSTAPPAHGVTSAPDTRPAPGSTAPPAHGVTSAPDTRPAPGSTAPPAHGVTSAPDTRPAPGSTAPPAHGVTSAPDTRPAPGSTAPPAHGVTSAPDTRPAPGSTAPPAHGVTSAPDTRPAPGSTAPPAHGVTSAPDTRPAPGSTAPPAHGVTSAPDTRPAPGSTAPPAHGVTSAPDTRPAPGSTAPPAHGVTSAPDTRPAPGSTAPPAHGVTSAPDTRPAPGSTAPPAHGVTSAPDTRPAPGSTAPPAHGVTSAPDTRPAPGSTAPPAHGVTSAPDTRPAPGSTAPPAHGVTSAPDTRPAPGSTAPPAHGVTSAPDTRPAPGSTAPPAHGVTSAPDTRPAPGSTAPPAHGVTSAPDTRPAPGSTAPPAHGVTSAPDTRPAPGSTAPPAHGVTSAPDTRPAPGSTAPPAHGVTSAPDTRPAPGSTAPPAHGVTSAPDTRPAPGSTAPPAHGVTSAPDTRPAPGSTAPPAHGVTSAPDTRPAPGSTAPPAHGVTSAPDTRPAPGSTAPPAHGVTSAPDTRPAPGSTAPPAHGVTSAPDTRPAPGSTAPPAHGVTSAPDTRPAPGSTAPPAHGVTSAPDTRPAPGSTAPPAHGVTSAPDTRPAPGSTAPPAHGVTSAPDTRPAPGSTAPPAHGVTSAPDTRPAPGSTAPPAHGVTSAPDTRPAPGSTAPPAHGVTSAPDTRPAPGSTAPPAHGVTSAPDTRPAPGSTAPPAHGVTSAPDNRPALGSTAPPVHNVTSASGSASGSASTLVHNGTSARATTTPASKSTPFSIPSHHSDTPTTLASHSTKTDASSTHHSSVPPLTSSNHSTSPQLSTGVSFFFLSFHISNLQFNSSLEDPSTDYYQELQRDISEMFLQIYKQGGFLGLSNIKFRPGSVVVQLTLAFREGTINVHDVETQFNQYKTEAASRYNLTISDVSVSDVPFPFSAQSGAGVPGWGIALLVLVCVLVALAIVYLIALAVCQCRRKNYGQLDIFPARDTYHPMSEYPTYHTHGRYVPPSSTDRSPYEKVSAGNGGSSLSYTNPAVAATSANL

The first experiment concerns the target T1, MUC1 (Mucin-1) as expressed by human cancer cell lines (human, UniProt P15941 24-1255).
T1 construct: whole, on cells; Endogenous antigen on the cell surface (flow cytometry) or in cell lysates (immunoprecipitation, western blot); also called MUC1 antigen; antigen recognized by the MP1 monoclonal antibody
Briefly: flow cytometry, SiHa cells; grade = percent MP1 positive cells (+: 20-30%). The method, then:
The MP1 monoclonal antibody of the present invention was added to the cultured various cancer cells, respectively, and they were reacted at 4° C. for 30 minutes and then washed with PBS, and FITC-conjugated goat anti mouse IgG (Jackson ImmunoResearch, USA) was added and they were cultured at 4° C. for 15 minutes. They were washed with PBS again, and then were analyzed with FACS caliber (Becton Dickinson, USA) to confirm the reactivity of the MP1 antibody in various solid cancer cell lines (Table 9).
On the technique in general: Flow cytometry measures light scatter and fluorescence of single cells or particles in a stream.
Regarding B1, the binding result was “binds”.

The next experiment addresses T1, MUC1 (Mucin-1) as expressed by human …. Briefly: flow cytometry, Capan-2 cells stained with transient-expression culture solution; positive rate against the negative control.
B2: the “Capan-2 cell surface binding (%)” value was determined as 15.8%. For the molecule B3, the “Capan-2 cell surface binding (%)” value is 11.4%. In the case of B4, the “Capan-2 cell surface binding (%)” value was determined as 11%. Same read-out and setting: as for B5, the figure is 11.4%; as for B6, 10.2%. On to B7, for which the “Capan-2 cell surface binding (%)” value was found to be 7.2%. Same read-out and setting: as for B8, the figure is 15.6%.

With B9, the “Capan-2 cell surface binding (%)” value was 7.95%. On the same count and under the same terms, the figure for B10 is 7.16%; for B11 it is 13.5%; for B12 it is 28.5%. Regarding B13, the “Capan-2 cell surface binding (%)” value is 7.04%. For the molecule B14, the “Capan-2 cell surface binding (%)” value is 27.2%. In the case of B15, the “Capan-2 cell surface binding (%)” value worked out at 6.65%. For the molecule B16, the “Capan-2 cell surface binding (%)” value is 6.61%. On the same count and under the same terms, the figure for B17 is 16.9%; for B18 it is 11.5%; for B19 it is 18.1%.

On to B20, for which the “Capan-2 cell surface binding (%)” value was determined as 12.7%. As for B21, the “Capan-2 cell surface binding (%)” value came to 9.97%.
